The experiment concerns the target HisTmod (His-tagged recombinant AjTmod) (Apostichopus japonicus). Put plainly: MST; Monolith NT.115; His-tagged AjTmod labelled with NT-647-NHS (about 5 uM), 16 serial concentrations of the unlabelled partner; 50 mM Tris-HCl pH 8.0, 0.02% Tween 20; 25 °C; three repeats.

By Kd is commonly meant the equilibrium constant for the complex coming apart.

Regarding “GSTFliC fusion protein (GST-fused Vibrio splendidus AJ01 flagellin C) (natural protein)”, the Kd was found to be 8.6 nM.
